To fix the notation:
T1: human PAC1 receptor (human, UniProt P41586 21-468)
T1 sequence: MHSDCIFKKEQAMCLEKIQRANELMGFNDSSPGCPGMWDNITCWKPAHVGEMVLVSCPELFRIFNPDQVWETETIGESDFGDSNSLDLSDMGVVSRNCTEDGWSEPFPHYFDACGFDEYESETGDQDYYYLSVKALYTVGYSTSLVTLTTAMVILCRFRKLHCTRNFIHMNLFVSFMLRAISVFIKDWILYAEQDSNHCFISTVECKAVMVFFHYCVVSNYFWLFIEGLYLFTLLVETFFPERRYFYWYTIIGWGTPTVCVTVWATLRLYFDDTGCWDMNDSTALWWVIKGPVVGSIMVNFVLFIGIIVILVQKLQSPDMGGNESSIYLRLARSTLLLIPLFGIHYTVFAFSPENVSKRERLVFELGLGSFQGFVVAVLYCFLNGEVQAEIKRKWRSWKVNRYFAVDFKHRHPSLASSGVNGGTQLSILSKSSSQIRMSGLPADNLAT

B1: iPS:327106 (bispecific antibody, human IgG1, kappa, lambda, N297G)
light 1: not shown
heavy 1: not shown
light 2: not shown
heavy 2: EVQLVESGGGLVKPGGSLRLSCAASGFTFGNAWMSWVRQAPGKELEWVGRIKSKTDGGTTDYAAPVKGRFTISRDDSKNTLYLQMNSLKTEDTAVYFCTTDRTGYSISWSSYYYYYGMDVWGQGTTVTVSSASTKGPSVFPLAPSSKSTSGGTAALGCLVKDYFPEPVTVSWNSGALTSGVHTFPAVLQSSGLYSLESVVTVPSSSLGTQTYICNVNHKPSNTKVDKKVEPKSCDKTHTCPPCPAPELLGGPSVFLFPPKPKDTLMISRTPEVTCVVVDVSHEDPEVKFNWYVDGVEVHNAKTKPCEEQYGSTYRCVSVLTVLHQDWLNGKEYKCKVSNKALPAPIEKTISKAKGQPREPQVYTLPPSRKEMTKNQVSLTCLVKGFYPSDIAVEWESNGQPENNYKTTPPVLKSDGSFFLYSKLTVDKSRWQQGNVFSCSVMHEALHNHYTQKSLSLSPGK
B2: iPS:327272 (bispecific antibody, human IgG1, kappa, lambda, N297G)
light 1: DIQMTQSPSSLSASVGDRITITCRASQSISRYLNWYQQKPGKAPKLLIYAASSLQSGIPSRFSGSGSGTDFTLTINSLQPEDFATYFCQQSYSPPFTFGEGTKVDIKRTVAAPSVFIFPPSDEQLKSGTASVVCLLNNFYPREAKVQWKVDNALQSGNSQESVTEQDSKDSTYSLESTLTLSKADYEKHKVYACEVTHQGLSSPVTKSFNRGEC
heavy 1: not shown
light 2: not shown
heavy 2: B1 heavy 2 with G30S, A63T, T90A, F97Y
B3: iPS:327107 (bispecific antibody, human IgG1, kappa, lambda, N297G)
light 1: DIQLTQSPSFLSASVGDRVTITCRASQSIGRSLHWYQQKPGKAPKLLIKYASQSLSGVPSRFSGSGSGTEFTLTISSLQPEDFATYYCHQSSRLPFTFGEGTKVDIKRTVAAPSVFIFPPSDEQLKSGTASVVCLLNNFYPREAKVQWKVDNALQSGNSQESVTEQDSKDSTYSLESTLTLSKADYEKHKVYACEVTHQGLSSPVTKSFNRGEC
heavy 1: not shown
light 2: not shown
heavy 2: B1 heavy 2
B4: iPS:327273 (bispecific antibody, human IgG1, kappa, lambda, N297G)
light 1: not shown
heavy 1: not shown
light 2: not shown
heavy 2: B1 heavy 2 with G30S, A63T, T90A, F97Y
B5: iPS:327274 (bispecific antibody, human IgG1, kappa, lambda, N297G)
light 1: B3 light 1
heavy 1: not shown
light 2: not shown
heavy 2: B1 heavy 2 with G30S, A63T, T90A, F97Y
B6: iPS:327105 (bispecific antibody, human IgG1, kappa, lambda, N297G)
light 1: B2 light 1
heavy 1: not shown
light 2: not shown
heavy 2: B1 heavy 2
B7: iPS:327103 (bispecific antibody, human IgG1, kappa, lambda, N297G)
light 1: B3 light 1 with E100P
heavy 1: not shown
light 2: not shown
heavy 2: not shown
B8: iPS:327269 (bispecific antibody, human IgG1, kappa, lambda, N297G)
light 1: B3 light 1 with E100P
heavy 1: not shown
light 2: not shown
heavy 2: not shown
B9: iPS:327111 (bispecific antibody, human IgG1, kappa, lambda, N297G)
light 1: B3 light 1 with E100P
heavy 1: not shown
light 2: not shown
heavy 2: not shown
B10: iPS:327094 (bispecific antibody, human IgG1, kappa, N297G)
light 1: EIVLTQSPATLSLSPGERATLSCRASQSVGRSLHWYQQKPGQAPRLLIKYASQSLSGIPARFSGSGSGTDFTLTISSLEPEDFAVYYCHQSSRLPFTFGPGTKVDIKRTVAAPSVFIFPPSDEQLKSGTASVVCLLNNFYPREAKVQWKVDNALQSGNSQESVTEQDSKDSTYSLESTLTLSKADYEKHKVYACEVTHQGLSSPVTKSFNRGEC
heavy 1: not shown
light 2: EIVLTQSPGTLSLSPGERATLSCRASQSVSSGYLTWYQQKPGQAPRLLIYGASSRATGIPDRFSGSGSGTDFTLTISRLEPEDFAVYYCQQYGNSLSRFGQGTKLEIKRTVAAPSVFIFPPSDEQLKSGTASVVCLLNNFYPREAKVQWKVDNALQSGNSQESVTEQDSKDSTYSLKSTLTLSKADYEKHKVYACEVTHQGLSSPVTKSFNRGEC
heavy 2: not shown
B11: iPS:327108 (bispecific antibody, human IgG1, kappa, lambda, N297G)
light 1: B10 light 1 with P100E
heavy 1: not shown
light 2: not shown
heavy 2: B1 heavy 2
B12: iPS:327112 (bispecific antibody, human IgG1, kappa, lambda, N297G)
light 1: B10 light 1
heavy 1: not shown
light 2: not shown
heavy 2: not shown
B13: iPS:326654 (bispecific antibody, human IgG2, kappa, lambda)
light 1: B10 light 1
heavy 1: QVQLVESGGGVVQPGRSLRLSCAASGFTFSRFAMHWVRQAPGKGLEWVAVISYDGGNKYYAESVKGRFTISRDNSKNTLYLQMNSLRAEDTALFYCARGYDVLTGYPDYWGQGTLVTVSSASTKGPSVFPLAPCSRSTSESTAALGCLVKDYFPEPVTVSWNSGALTSGVHTFPAVLQSSGLYSLKSVVTVPSSNFGTQTYTCNVDHKPSNTKVDKTVERKCCVECPPCPAPPVAGPSVFLFPPKPKDTLMISRTPEVTCVVVDVSHEDPEVQFNWYVDGVEVHNAKTKPREEQFNSTFRVVSVLTVVHQDWLNGKEYKCKVSNKGLPAPIEKTISKTKGQPREPQVYTLPPSREEMTKNQVSLTCLVDGFYPSDIAVEWESNGQPENNYDTTPPMLDSDGSFFLYSDLTVDKSRWQQGNVFSCSVMHEALHNHYTQKSLSLSPGK
light 2: not shown
heavy 2: not shown
B14: iPS:327270 (bispecific antibody, human IgG1, kappa, lambda, N297G)
light 1: B10 light 1
heavy 1: not shown
light 2: not shown
heavy 2: not shown
B15: iPS:327104 (bispecific antibody, human IgG1, kappa, lambda, N297G)
light 1: B10 light 1
heavy 1: not shown
light 2: not shown
heavy 2: not shown

Residue numbers refer to the chain shown, from its start.

Chain of human CGRP receptor (Q16602 23-461 limits assumed, chain 1 of 2): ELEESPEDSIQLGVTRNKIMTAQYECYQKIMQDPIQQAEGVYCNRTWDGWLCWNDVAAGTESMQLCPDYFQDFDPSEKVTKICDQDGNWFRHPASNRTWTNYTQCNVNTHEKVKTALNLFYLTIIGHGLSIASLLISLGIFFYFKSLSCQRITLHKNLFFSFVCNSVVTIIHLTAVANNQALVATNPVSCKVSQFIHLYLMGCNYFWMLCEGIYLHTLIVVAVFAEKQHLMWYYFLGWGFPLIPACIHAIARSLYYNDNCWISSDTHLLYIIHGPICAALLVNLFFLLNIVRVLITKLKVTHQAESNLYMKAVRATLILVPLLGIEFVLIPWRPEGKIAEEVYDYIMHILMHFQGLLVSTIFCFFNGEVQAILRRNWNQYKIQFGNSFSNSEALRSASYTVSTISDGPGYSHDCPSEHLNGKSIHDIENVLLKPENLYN
Chain of human CGRP receptor (O60894 27-148 limits assumed, chain 2 of 2): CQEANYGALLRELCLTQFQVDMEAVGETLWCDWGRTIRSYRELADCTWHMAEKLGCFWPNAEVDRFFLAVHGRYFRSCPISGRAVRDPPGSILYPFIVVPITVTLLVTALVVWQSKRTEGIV

The first experiment concerns the target human CGRP receptor (human, UniProt Q16602 23-461; O60894 27-148). Kind of experiment: cell-based or functional assay.
Regarding B1, the “% inhibition of human CGRPR” value worked out at 71%.
For B2, the “% inhibition of human CGRPR” value turned out to be 81%.
Turning to B3, the “% inhibition of human CGRPR” value is 76%.
The same measure, in the same setting: in the case of B4 it was 81%.
Consider B5, for which the “% inhibition of human CGRPR” value was 87%.
B6: the “% inhibition of human CGRPR” value came out at 81%.
For the molecule B7, the “% inhibition of human CGRPR” value was found to be 82%.
Take B8: the “% inhibition of human CGRPR” value was 79%.
On to B9, for which the “% inhibition of human CGRPR” value worked out at 88%.
For B10, the “% inhibition of human CGRPR” value worked out at 73%.
As for B11, the “% inhibition of human CGRPR” value stood at 66%.
For B12, the “% inhibition of human CGRPR” value came out at 84%.
On the same count and under the same terms, in the case of B13 it was 79%; in that of B14, 71%; in that of B15, 81%.

The next experiment concerns the target T1, human PAC1 receptor. Kind of experiment: cell-based or functional assay.
On to B1, for which the “% inhibition of human PAC1” value amounted to 6%.
With B2, the “% inhibition of human PAC1” value is 62%.
Take B3: the “% inhibition of human PAC1” value is 22%.
B4: the “% inhibition of human PAC1” value amounted to 10%.
On to B5, for which the “% inhibition of human PAC1” value was 22%.
For the molecule B6, the “% inhibition of human PAC1” value came to 63%.
Consider B7, for which the “% inhibition of human PAC1” value worked out at 21%.
On to B8, for which the “% inhibition of human PAC1” value stood at 8%.
Consider B9, for which the “% inhibition of human PAC1” value is 65%.
As to B10, the “% inhibition of human PAC1” value was 91%.
Turning to B11, the “% inhibition of human PAC1” value was found to be 74%.
On to B12, for which the “% inhibition of human PAC1” value is 104%.
As to B13, the “% inhibition of human PAC1” value worked out at 99%.
Regarding B14, the “% inhibition of human PAC1” value is 82%.
With B15, the “% inhibition of human PAC1” value was determined as 95%.

(Values after US20170306033A1 (Amgen, published 2017).)
